B1: library; numbered along this chain (parent)
chain: MAAAGGARLLRAASAVLGGPAGRWLHHAGSRAGSSGLLRNRGPGGSAEASRSLSVSARARSSSEDKITVHFINRDGETLTTKGKVGDSLLDVVVENNLDIDGFGACEGTLACSTCHLIFEDHIYEKLDAITDEENDMLDLAYGLTDRSRLGCQICLTKSMDNMTVRVPETVADARQSIDVGKTS

Variants of: B1
Assay: scaled log2 fold change in cell abundance, elesclomol vs control (0 = silent mean, 1 = nonsense mean) (scaled log2 ratio); higher = higher viability under elesclomol (loss of FDX1 cuproptosis function)
Settings: glucose 10 mM
Method: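 Deep mutational scan of full-length human FDX1: a pooled saturation-mutagenesis ORF library (every residue 2-184 mutated to all 19 amino acids plus stop, and silent codons where available) was expressed by lentivirus in FDX1-knockout ABC1 (14 days) or HEK293T (11 days) cells grown with elesclomol (ES) or DMSO control. Variant abundance came from ORF sequencing. The log2 fold change (ES vs control, mean of duplicates) was centred on the silent-variant mean (0) and scaled to the nonsense-variant mean (1). Higher values mean greater viability under ES, i.e. loss of FDX1 function in cuproptosis.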

[1] = with ABC1 FDX1 KO, elesclomol 5 nM, 14 days
[2] = with HEK293T FDX1 KO, elesclomol 40 nM, 11 days
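Further: variant abundance is its share of total variant reads in each endpoint sample, from next-generation sequencing of the integrated ORF PCR-amplified out of genomic DNA.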

Variant | scaled log2 fold change [1] | scaled log2 fold change [2]
H26D | 0.267 | 0.193
H26G | -0.196 | -0.699
H26E | 0.356 | 0.955
H26N | 0.169 | -0.198
H26P | -0.00391 | 
H26M | 0.23 | 
H26A | 0.684 | 1.75
H26W | 0.101 | -0.281
H26K | 0.352 | 
H26S | 0.241 | 
H26R | -0.169 | -0.571
H26C | -0.0138 | 
H26F | 0.206 | -0.237
H26T | 0.206 | 0.037
H26L | 0.346 | 0.304
H26Q | 0.0786 | 1.39
H26Y | 0.147 | -0.00505
V16I | -0.31 | 
V16C | 0.174 | 0.501
V16G | -0.0956 | 0.0318
V16M | 0.215 | 0.406
V16Q | 0.575 | 
V16D | 0.0655 | -0.0447
V16K | 0.121 | 0.118
V16A | -0.668 | 

Variant | scaled log2 fold change [1] | scaled log2 fold change [2]
V16T | 0.119 | -0.636
V16F | -0.9 | 0.654
V16E | -0.716 | 
V16N | -0.645 | -0.143
V16L | 0.316 | -0.316
V16P | -0.0976 | 0.175
V16R | -0.0133 | 
V16Y | 0.461 | 0.705
V16W | -0.405 | 
V16S | 0.228 | -0.117
W24N | -0.222 | 0.318
W24R | -0.838 | -0.244
W24V | 0.155 | -0.39
W24H | 0.42 | -0.545
W24M | 0.24 | -0.653
W24C | 0.00637 | -0.0787
W24F | 0.286 | 0.448
W24L | 0.45 | 
W24E | 0.458 | -0.438
W24Q | -0.175 | 0.364
W24I | -0.0623 | 
W24K | -0.318 | -0.743
G19H | 0.674 | 
G19A | -0.167 | -0.0193
G19Q | 0.00839 | -0.000362

Variant | scaled log2 fold change [1] | scaled log2 fold change [2]
G19F | 0.0719 | 0.185
G19Y | 0.187 | -0.867
G19N | -0.0111 | 0.0883
G19L | -0.367 | 0.0638
G19E | 0.246 | -0.028
G19R | 0.483 | 1.5
G19C | -0.0683 | -0.489
G19S | 0.267 | 0.0205
G19P | 0.54 | 
G19T | 0.117 | 0.837
G19V | -0.0119 | 1.01
G19I | 0.0203 | -0.0307
G19K | -0.0528 | -0.256
G19W | 0.277 | -0.266
G19D | 0.233 | 0.874
G19M | -0.0059 | -0.191
S30V | 0.222 | -0.701
S30T | -0.784 | -0.554
S30N | 0.26 | -0.64
S30M | 0.423 | -0.121
S30D | 0.413 | 0.89
S30H | 0.109 | 0.106
S30G | -0.403 | 0.208
S30Y | -0.00883 | -0.262
S30K | 0.428 | -0.721

Variant | scaled log2 fold change [1] | scaled log2 fold change [2]
S30E | 0.181 | -0.188
S30Q | 0.345 | -0.23
S30R | 0.119 | 
S30F | -0.244 | -0.2
S30I | 0.0124 | -0.232
S30L | 0.0325 | 
S30C | 0.348 | -0.559
S30A | 0.166 | -0.0965
A28Y | -0.00855 | 0.974
A28I | -0.00142 | 0.691
A28D | 0.233 | -0.109
A28K | -0.114 | 0.248
A28T | -0.152 | 
A28L | -0.00195 | 
A28C | 0.232 | 0.15
A28N | -0.0865 | -0.0101
A28R | 0.246 | 2.14
A28H | -0.736 | -0.127
A28Q | 0.264 | 0.224
A28S | -0.179 | -0.13
A28F | 0.368 | 0.0914
A28E | 0.301 | -0.431
A28M | -0.0504 | -0.198
A28W | -0.122 | 0.863
A28G | 0.336 | 1.17

Variant | scaled log2 fold change [1] | scaled log2 fold change [2]
A28P | 0.56 | 0.292
A28V | 0.133 | -0.408
R23N | 0.598 | -0.335
R23I | 0.309 | 
R23T | -0.164 | -0.141
R23D | 0.199 | 
R23Y | -0.603 | 
R23S | -0.477 | 
R23W | 0.348 | 0.553
R23C | 0.413 | 0.458
R23Q | 0.00392 | 
R23K | 0.498 | 
R23E | 0.00775 | 
R23M | 0.474 | -0.139
R23P | -0.138 | 0.465
G22F | 0.555 | 
G22I | 0.314 | 0.699
G22M | 0.793 | 
G22T | -0.511 | -0.29
G22A | 0.412 | 
G22L | -0.306 | 
G22H | 0.331 | 0.022
G22Y | 0.703 | 0.208
G22R | -0.188 | 
G22E | -0.42 | -0.0922
